According to paper PMC3257533:

Biological target: paclitaxel-stabilized microtubules
Assay: co-sedimentation

Kd: 230 nM
B1: MBP-Nsk1 (recombinant maltose-binding protein-Nsk1, wild type) (natural protein)
chain: MAYKLSLSAVEPLLIFPAAPFSTKKEKSTFQNNLISSDVFSSALKPLSPLKSLVADFSTHSNPSKDNQLISPPKINHREFLNEEKESDTQTRYLKQLINICNSPSKNHETSLSPSKSTIDNNERKLDNEIDNYKHDVKYSPYKGQGKTSNPSQGTTKCPGIFEEDNFFSVSPKRRKNLFEKYGKTDLGKPARVPSPKKSLSSTIKSPPSRVKLPTSILSKSPPLKVPNKNRSSTFSPLRTPTSSSKTFVIVDHSTPSPPSIRTKLEAFAPNSTFATQKRLRRLATLESSPALRSTLKSLQSKSSPVKLLKLKEEKAKIKNQLFKSEEEKDPVGKQKLPLESSLSPLDHSSAEKEMQKAPAKNKRRRTGSLETGLYPKESPTPSKKRSKRVLWSLKHIVSPGNREKHSLNSTPESIMKKDTKWPQNLAKNNINSEPNTPTKSNIDTGKAHSARAHKTRKNIQS
